Experimental data as given in the nanobody polyreactivity screen of Harvey et al. (2022).

Test: yeast display, Sf9 membrane polyspecificity reagent, FACS + sequencing; frameworks hold sequencing errors
Summary of the method: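 A nanobody's polyreactivity label depends on the gate it was sorted from. Yeast display cells were stained with 10% biotinylated, detergent-solubilized Sf9 membrane reagent for 1 hour at 4 °C, enriched on streptavidin microbeads and sorted by FACS. The low and high (top ~1%) gates were set on anti-HA fluorescence for expression and streptavidin fluorescence for reagent binding.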

Row | Sequence | polyreactivity (PSR sort gate)
1 | QVQLVESGGGLVQAGGSLRLSCAASGFTFPSNAMGWYRQAPGKERELVAAISSTDSTNYADSVKGRFTISRDNAKNTVYFQMNSLKPEDTAVYYCAKRYPRYRYNTRGNDYWGQGTQVTVSS | low polyreactivity
2 | QVQLVESGGGLVQAGGSLRLSCAASGFTFPSNAMGWYRQAPGKERELVAAISSTDSTNYADSVKGRFTISRDNAKNTVYLQMNSLKPEDTAVYYCNADRDDDYDYWGQGTQVTVSS | low polyreactivity
3 | QVQLVESGGGLVQAGGSLRLSCAASGFTFPSYTMGWYRQAPGKERELVAAISRSDGTTYYADSVKGRFTISRDNAKNTVYLQMNSLKPEDTAVYYCNKAYKRYGYHYDYWGQGTQVTVSS | high polyreactivity
4 | QVQLVESGGGLVQAGGSLRLSCAASGFTFPVYAMGWSRQAPGKERELVAAISWSGGGTYYADSVKGRFTISRDNAKNTVYVQMNSLKPEDTAVYYCAVEDLSHAYVQHYRYGYGYWGQGTQVTVSS | low polyreactivity
5 | QVQLVESGGGLVQAGGSLRLSCAASGFTFPVYVLGWYRQAPGKERELVAAISGGGGTSYADSVKGRFTISRDNAKNTVYLQMNSLKPEDTAVYYCAADYRTYVYVYGFRHFDYWGQGTQVTVSS | low polyreactivity
6 | QVQLVESGGGLVQAGGSLRLSCAASGFTFPWNVMGWYRQAPGKERELVAAITYDGGGTYADSVKGRFTISRDNAKNTVYLQMNSLKPEDTAVYYSNADLIYGEEYDYWGQGTQVTVSS | low polyreactivity
7 | QVQLVESGGGLVQAGGSLRLSCAASGFTFPWYAMVWYRQSPGKERELVASISYRGDSTYYADSVKGRFTISRDNAKNTVNLQMNILKPEDTAVYYCNKLLASYYLPGFDYWGQGTQVTVSS | low polyreactivity
8 | QVQLVESGGGLVQAGGSLRLSCAASGFTFPYNAMGWYRQAPGKERELVAAISSGDSTYYADSVKGRFTISRDNAKNTVYLQMKSLKPEDTAVYYCDAYPSLYYTKYDYWGQGTQVTVSS | high polyreactivity
9 | QVQLVESGGGLVQAGGSLRLSCAASGFTFPYNAMGWYRQAPGKERELVAAISWSGGSTYYADSVKGRFTISRDNAKNTVYLQMNSLKPEDTAVYYCAASYWRIPMEYWGQVTQVTVSS | high polyreactivity
10 | QVQLVESGGGLVQAGGSLRLSCAASGFTFPYYAMGRYRQAPGKERELVAAITRSGGSTNYADSVKGRFTISRDNAKNTVYLQMNSLKPEDTAVYYCNAPPGYSSTRNGYWGQGTQVTVSS | high polyreactivity
11 | QVQLVESGGGLVQAGGSLRLSCAASGFTFPYYAMGWYRPAPGKERELVAAISRNGGSTYYADSVKGRFTISRDNAKNTVYFQMNRLKPEDTAVYYCNKKWLGWADPSLDKRYDYWGQGTQVTVSS | high polyreactivity
12 | QVQLVESGGGLVQAGGSLRLSCAASGFTFPYYAMGWYRQALGKERELVAGISRGGSTYYADSVKGRFTISRDNAKNTVYLQMNSLKPEDTAVYYCAADRYIGQYTYYYWGQGTQVTVSS | high polyreactivity
13 | QVQLVESGGGLVQAGGSLRLSCAASGFTFPYYAMGWYRQAPGKERELVAAISSSGGRTYYADSVKGRFTISRDNAKNTVYLQMNSLKPEDTAVYYCAVRGKAYRRLRDYWGQGTQVTVSS | high polyreactivity
14 | QVQLVESGGGLVQAGGSLRLSCAASGFTFPYYAQGWYRQAPGKETELVATISTGSGVSTYDADSVKGRFTISRDNAKNTVYLQMNSLKPEDTAVYYCAAVFGWRRYVTYDYWGQGTQVTVSS | low polyreactivity
15 | QVQLVESGGGLVQAGGSLRLSCAASGFTFPYYTMGWYRQAPGKERELVAAITSSGGSTYYADSVKGRFTISRDNAKNTVYLQMNSLKPEDTAVYYCNAAVYAHRYIYGFDYWGQGTQVTVSS | high polyreactivity
16 | QVQLVESGGGLVQAGGSLRLSCAASGFTFPYYTMGWYRQAPGKERELVATISYSGGRTYYADSVKGRFTISRDNAKNTVYLQMNSLKPEDTAVYYCNKVVRLQSRYDYWGQGTQVTVSS | high polyreactivity
17 | QVQLVESGGGLVQAGGSLRLSCAASGFTFQAYAMGWYRQAPGKERELVAAIRSRGDSTYYADSVKGRFTISRDNAKNTVYLQMNSLKPEDTAVYYCNVLGYSYWGQGTQVTVSS | high polyreactivity
18 | QVQLVESGGGLVQAGGSLRLSCAASGFTFQFNAMGWYRQAPGKERELVAAITWSGDSTYYADSVKGRFTISRDNAKNTVYLQMISLKPEDTAVYYCNADYGWVDTYTNYDYWGQGTQVTVSS | low polyreactivity
19 | QVQLVESGGGLVQAGGSLRLSCAASGFTFQGNVMGWYRQAPGKERELVAVITSGGSTYYADSVKGRFTISRDNAKNTVYLQMNSLKPEDTAVYYCAARAYTWGPAGQVEKYYYWGQGTQVTVSS | high polyreactivity
20 | QVQLVESGGGLVQAGGSLRLSCAASGFTFQYNAMGWYRQAPGKERELVAAITWTGTSTYADSVKGRFTISRDNATNTVYLQMNSLKPEDTAVYYCADSYYAPRWFRYDYWGQGTQVTVSS | low polyreactivity

Row | Sequence | polyreactivity (PSR sort gate)
21 | QVQLVESGGGLVQAGGSLRLSCAASGFTFQYYPMGWYRQAPGKERELVAAISWSGGSTNYADSVKGRFTISRDNAKNTVYLQMNSLKPEDTAVYYCNAVHYYVEYDYWGQGTQVTVSS | high polyreactivity
22 | QVQLVESGGGLVQAGGSLRLSCAASGFTFRANAMGWYRQAPGKERELVAAISQSGGRTYYADSVKGRFTISRDNAKNTVYLQMNSLKPEDTAVYYCAAPYSAKELYYRMDYWGQGTQVTVSS | high polyreactivity
23 | QVQLVESGGGLVQAGGSLRLSCAASGFTFRANAMGWYRQAPGKERELVAVITGSGGRTYYADSVKGRFTISRDNAKNTVYLQMNSLKPEDTAVYYCNASGRKTNPYDYWGQGTQVTVSS | high polyreactivity
24 | QVQLVESGGGLVQAGGSLRLSCAASGFTFRAYAMGWYRQAPGKASELVATISGRGGSTYYADSVKGRFPISRDNAKNTVYLQMNSLKPEDTAVYYCARRFWSEYVTGVGGYNFWGQGTQVTVSS | high polyreactivity
25 | QVQLVESGGGLVQAGGSLRLSCAASGFTFRAYAMGWYRQAPGKEREFVAAISRRGGSTSYADSVKGRFTISRDNAKNTVYLQMNSLKPEDTAVYYCAATYQILTTSAHDSWGQGTQVTVSS | high polyreactivity
26 | QVQLVESGGGLVQAGGSLRLSCAASGFTFRAYAMGWYRQAPGKERELVAAISTSGGSTYYADSVKGRFTISRDNAKNTVYLQMNSLKPEDTSVYYCAKRGLQGYWSPYNYWGQGTQVTVSS | high polyreactivity
27 | QVQLVESGGGLVQAGGSLRLSCAASGFTFRDNAMGWYRQAPGKERELVAAISKSGGTTYYADSVKGRFTISRDNAKNTVYLQMNSLKPEDTAVYYCNAVNRYSGHSYYWGQGTQVTVSS | low polyreactivity
28 | QVQLVESGGGLVQAGGSLRLSCAASGFTFRDYAMGWYRQAPGKERELVAAISRSGDSTYYADSVKGRFTISRDNAKNTVYLQMNSLKPEDTAVYYYAAKRRYTTYDYWGQGTQVTVSS | high polyreactivity
29 | QVQLVESGGGLVQAGGSLRLSCAASGFTFRDYSMGWYRQAPGKERELVAAMSFSGGRTFYADSVKGRFTISRDNGKNTVYLQMNSLKPEDTAVYFCNAQYLTSRYYPRRNLDYWGQGTQVTVSS | high polyreactivity
30 | QVQLVESGGGLVQAGGSLRLSCAASGFTFRFYAMGRYRQAPGKERELVAAISGSGGSTYYADSVKGRFTISRDNAKNTVFLQMNSLKPEDTAVYYCNAGRWLYWYDRSDYWGQGTQVTVSS | high polyreactivity
31 | QVQLVESGGGLVQAGGSLRLSCAASGFTFRFYAMGWYRQAPGKETELVAAISSSGSRTYYADSVKGRFTISRDTAKNTVYFQMHSLKPEDTAVYYCNTVTSQDRYDYWGQGTHVTVSS | high polyreactivity
32 | QVQLVESGGGLVQAGGSLRLSCAASGFTFRFYVMGWYRQAPGKERELVAAISKRGASTSYADSVKGRFTISRDNAKNTVYLQMNSLKPEDTAVYYCAASAKRGEMGYWGQGTQVTVSS | high polyreactivity
33 | QVQLVESGGGLVQAGGSLRLSCAASGFTFRGNAMGWYRQAPGKERELVAAITRRGGSTYYADSVKGRFTISRDNAKNTVYLQMNSLKPEDTAVYYCARDSPRPPQSSRMAYWGQGTQVTVSS | high polyreactivity
34 | QVQLVESGGGLVQAGGSLRLSCAASGFTFRGNAMGWYRQAPGKERELVAAITSSDDSTYYADSVKGRFTISRDYAKNTVYLQMNSLKPEDTAVYYCAAEGVHYAGDYGTGYDYWGQGTQVTVSS | low polyreactivity
35 | QVQLVESGGGLVQAGGSLRLSCAASGFTFRGNVMGWYRQAPGKERELVAGISSTGSGRTYYADSVKGRFTISRDNAKNTVYLQMNSLKPEDTAVYYCAASRTLRKHRYEYWGQGTQVTVSS | high polyreactivity
36 | QVQLVESGGGLVQAGGSLRLSCAASGFTFRGYAMGWYRQAPGKERELVASITYRGGSTYYADSVKGRFTISRDNAKNTVYLQMNSLKPEDTAVSYCNAGFGGRRRQDAFIGTSIYDYWGQCTQVTVSS | low polyreactivity
37 | QVQLVESGGGLVQAGGSLRLSCAASGFTFRHNTMGWYRQAPGKERELVAAISIGGRTYYADSVKGRFTISRDNAKNTVYLQMNSLKTEDSAVYYCANLSGGQSPGYDYWGQGTQVTVSW | high polyreactivity
38 | QVQLVESGGGLVQAGGSLRLSCAASGFTFRHYAMGWYRQAPGKERELVAGITIRGTTYYADSVKGRFTISRDNAKNTVYLQMNSLKPEDTAVYYCAAAWRLGHLRFNSWGQGTQVTVSS | high polyreactivity
39 | QVQLVESGGGLVQAGGSLRLSCAASGFTFRINAMGWYRQAPGKERELVAAISWSGGSTYYADSVKGRFTISRDNAKNTVYLQMNSLKPEDTAFYYCNKVQSSRYRSQRTFQYGYWGQGTQVTVSS | high polyreactivity
40 | QVQLVESGGGLVQAGGSLRLSCAASGFTFRIYDMGWYRQAPGKERELVAAITNGGSTDYAYSVKGRFTISRDNAKNTVYLQMNSLKTEDNAVYYCAADVTYQVYDLVSVWYDYWGQGTQVTVSS | low polyreactivity
